# Measured values from the supplement of paper PMC10567573.
# B1: NEK8 (parent)
# chain: YTFGSNQHGQLGTNTRRGSRAPCK
# B2: ZNF207 (parent)
# chain: CHICHKKLYTGPGLAIHCMQVHKE
# Variants of: B1
# Experiment: protein stability index of a GFP-peptide fusion (GPS, HEK-293T) (PSI 1-6); higher = more stable
# Conditions: c terminus: a fixed tail appended
# 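Further: lentivirally expressed fusions sorted by FACS into six bins by GFP to DsRed ratio, PSI derived from sequencing read proportions per bin multiplied by bin number.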
row,Variant,protein stability index
1,WTFGSNQHGQLGTNTRRGSRAPCK,4.28
2,MTFGSNQHGQLGTNTRRGSRAPCK,4.31
3,NTFGSNQHGQLGTNTRRGSRAPCK,5.24
4,HTFGSNQHGQLGTNTRRGSRAPCK,4.54
5,ITFGSNQHGQLGTNTRRGSRAPCK,4.34
6,QTFGSNQHGQLGTNTRRGSRAPCK,4.99
7,RTFGSNQHGQLGTNTRRGSRAPCK,4.64
8,GTFGSNQHGQLGTNTRRGSRAPCK,5.09
9,TTFGSNQHGQLGTNTRRGSRAPCK,4.49
10,ETFGSNQHGQLGTNTRRGSRAPCK,4.47
11,STFGSNQHGQLGTNTRRGSRAPCK,4.89
12,PTFGSNQHGQLGTNTRRGSRAPCK,4.52
13,FTFGSNQHGQLGTNTRRGSRAPCK,3.66
14,DTFGSNQHGQLGTNTRRGSRAPCK,4.96
15,ATFGSNQHGQLGTNTRRGSRAPCK,4.81
16,VTFGSNQHGQLGTNTRRGSRAPCK,4.6
17,CTFGSNQHGQLGTNTRRGSRAPCK,4.11
18,LTFGSNQHGQLGTNTRRGSRAPCK,4.13
19,KTFGSNQHGQLGTNTRRGSRAPCK,4.79
20,YKFGSNQHGQLGTNTRRGSRAPCK,3.83
21,YEFGSNQHGQLGTNTRRGSRAPCK,4.78
22,YIFGSNQHGQLGTNTRRGSRAPCK,2.44
23,YFFGSNQHGQLGTNTRRGSRAPCK,3.25
24,YAFGSNQHGQLGTNTRRGSRAPCK,2.77
25,YCFGSNQHGQLGTNTRRGSRAPCK,2.88
26,YLFGSNQHGQLGTNTRRGSRAPCK,3.61
27,YHFGSNQHGQLGTNTRRGSRAPCK,1.95
28,YGFGSNQHGQLGTNTRRGSRAPCK,4.33
29,YDFGSNQHGQLGTNTRRGSRAPCK,4.43

# Variants of: B2
# Experiment: as above
# Conditions: c terminus: a fixed tail appended
row,Variant,protein stability index
1,CHICHKKLYTGPGLAIHWMQVHKE,1.93
2,CHICHKKLYTGPGLAIHQMQVHKE,2.99
3,CHICHKKLYTGPGLAIHNMQVHKE,2.59
4,CHICHKKLYTGPGLAIHHMQVHKE,2.56
5,CHICHKKLYTGPGLAIHAMQVHKE,2.62
6,CHICHKKLYTGPGLAIHFMQVHKE,2.21
7,CHICHKKLYTGPGLAIHTMQVHKE,3.02
8,CHICHKKLYTGPGLAIHIMQVHKE,2.06
9,CHICHKKLYTGPGLAIHRMQVHKE,2.4
10,CHICHKKLYTGPGLAIHSMQVHKE,3.01
11,CHICHKKLYTGPGLAIHYMQVHKE,2.02
12,CHICHKKLYTGPGLAIHGMQVHKE,2.18
13,CHICHKKLYTGPGLAIHEMQVHKE,3.57
14,CHICHKKLYTGPGLAIHLMQVHKE,3.69
15,CHICHKKLYTGPGLAIHMMQVHKE,2.47
16,CHICHKKLYTGPGLAIHPMQVHKE,2.47
17,CHICHKKLYTGPGLAIHVMQVHKE,2.8
18,CHICHKKLYTGPGLAIHKMQVHKE,3.09
19,CHICHKKLYTGPGLAIHDMQVHKE,2.75
20,CHICHKKLYTGPGLAYHCMQVHKE,3.02
21,CHICHKKLYTGPGLASHCMQVHKE,3.72
22,CHICHKKLYTGPGLAQHCMQVHKE,3.9

row,Variant,protein stability index
1,CHICHKKLYTGPGLATHCMQVHKE,3.82
2,CHICHKKLYTGPGLARHCMQVHKE,2.71
3,CHICHKKLYTGPGLAVHCMQVHKE,3.81
4,CHICHKKLYTGPGLAWHCMQVHKE,3.16
5,CHICHKKLYTGPGLAIHCMQVHKK,2.65
6,CHICHKKLYTGPGLAIHCMQVHKG,2.55
7,CHICHKKLYTGPGLAIHCMQVHKW,2.49
8,CHICHKKLYTGPGLAIHCMQVHKC,3.29
9,CHICHKKLYTGPGLAIHCMQVHKI,3.47
10,CHICHKKLYTGPGLAIHCMQVHKF,2.53
11,CHICHKKLYTGPGLAIHCMQVHKQ,2.85
12,CHICHKKLYTGPGLAIHCMQVHKM,2.11
13,CHICHKKLYTGPGLAIHCMQVHKV,3.65
14,CHICHKKLYTGPGLAIHCMQVHKP,2.63
15,CHICHKKLYTGPGLAIHCMQVHKD,2.84
16,CHICHKKLYTGPGLAIHCMQVHKH,2.18
17,CHICHKKLYTGPGLAIHCMQVHKR,2.34
18,CHICHKKLYTGPGLAIHCMQVHKT,2.96
19,CHICHKKLYTGPGLAIHCMQVHKY,2.74
20,CHICHKKLYTGPGLAIHCMQVHKL,2.6
21,CHICHKKLYTGPGLAIHCMQVHKN,2.44
22,CHICHKKLYTGPGLAIHCMQVHKS,3.17

row,Variant,protein stability index
1,CHICHKKLYTGPGLAIHCMQVHKA,2.66
2,CHICHKKLYTGPGLAIWCMQVHKE,3.87
3,CHICHKKLYTGPGLAISCMQVHKE,3.15
4,CHICHKKLYTGPGLAIGCMQVHKE,2.82
5,CHICHKKLYTGPGLAINCMQVHKE,2.25
6,CHICHKKLYTGPGLAIMCMQVHKE,2.55
7,CHICHKKLYTGPGLAICCMQVHKE,3.87
8,CHICHKKLYTGPGLAIFCMQVHKE,3.52
9,CHICHKKLYTGPGLAIPCMQVHKE,2.78
10,CHICHKKLYTGPGLAIACMQVHKE,2.15
11,CHICHKKLYTGPGLAIRCMQVHKE,2.22
12,CHICHKKLYTGPGLAIQCMQVHKE,2.97
13,CHICHKKLYTGPGLAIICMQVHKE,2.08
14,CHICHKKLYTGPGLAIYCMQVHKE,2.67
15,CHICHKKLYTGPGLAIKCMQVHKE,2.19
16,CHICHKKLYTGPGLAIECMQVHKE,3.36
17,CHICHKKLYTGPGLAITCMQVHKE,2.7
18,CHICHKKLYTGPGLAIVCMQVHKE,3.01
19,CHICHKKLYTGPGLAIDCMQVHKE,2.47
20,CHICHKKLYTGPGLAILCMQVHKE,1.87
21,CHICHKKLYTGPGLAIHCAQVHKE,3.57
